Assay results from US20050191293A1 (Bristol-Myers Squibb, published 2005).
Several values for one entry are separate records, joined by “and”; a condition that tells them apart may be missing. Equal entries are not always repeated.

T1: rhesus monkey IP-10 (rhesus monkey, UniProt Q8MIZ1 22-98)
T1 construct: Made by recombinant expression and purified by standard methods; also called Rhesus IP-10; rrmIP-10
T1 sequence: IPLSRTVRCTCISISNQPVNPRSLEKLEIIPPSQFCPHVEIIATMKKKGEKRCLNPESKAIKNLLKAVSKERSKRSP

T2: human MIG (monokine induced by gamma interferon) (human, UniProt Q07325 23-125)
T2 construct: Bought (PeproTech 300-26; R&D Systems for the migration assay)
T2 sequence: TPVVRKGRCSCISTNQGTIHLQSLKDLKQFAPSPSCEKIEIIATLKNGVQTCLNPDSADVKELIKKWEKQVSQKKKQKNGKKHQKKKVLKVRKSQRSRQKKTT

T3: mouse IP-10 (mouse, UniProt P17515 22-98)
T3 construct: Bought (PeproTech 250-16)
T3 sequence: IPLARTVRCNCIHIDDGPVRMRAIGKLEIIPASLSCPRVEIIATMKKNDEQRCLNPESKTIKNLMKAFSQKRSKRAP

T4: human ITAC (interferon-inducible T cell alpha chemoattractant) (human, UniProt O14625 22-94)
T4 sequence: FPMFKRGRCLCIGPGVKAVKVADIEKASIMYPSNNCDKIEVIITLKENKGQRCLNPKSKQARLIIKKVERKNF

B1: 2G1 human monoclonal antibody (antibody, V domains shown)
VH: QVQLVESGGGVVQPGRSLRLSCAASGFTFSNCGMHWVRQAPGKGLEWVALIGYDGINEYYADSVKGRFTISRDNSKNTLYLQMNSLRAEDTAVFYCARDWPEGYYNGMDVWGQGTTVTVSS
VL: not shown
notes: Human IgG with kappa light chain from a hybridoma of transgenic mice
B2: 6B10 human monoclonal antibody (antibody, V domains shown)
VH: QVQLVESGGGVVQPGRSLRLSCAASGFTFSNSAMHWVRQAPGKGLEWVALIPFDGYNKYYADSVKGRFTISRDNSKNTLYLQMNSLRAEDTAVYYCAREGGYTGYDGGFDYWGQGILVTVSS
VL: EIVLTQSPATLSLSPGERATLSCRASQSVSSYLAWYQQKPGQAPRLLIYDASNRATGIPARFSGSGSGTDFTLTISSLEPEDFAVYYCQQRSNWPPYTFGQGTKLEIK
notes: as for B1
B3: 6A5 human monoclonal antibody (antibody, V domains shown)
VH: QMQLVESGGGVVQPGRSLRLSCTASGFTFSNNGMHWVRQAPGKGLEWVAVIWFDGMNKFYVDSVKGRFTISRDNSKNTLYLEMNSLRAEDTAIYYCAREGDGSGIYYYYGMDVWGQGTTVTVSS
VL: not shown
notes: Human IgG with kappa light chain from a hybridoma; also called 6A5 Batch 2; 6A5 (Batch 2)

Legend:
[1] = target: T5, human IP-10 (interferon gamma inducible protein 10) (human, UniProt P02778 22-98); assay: cell-based or functional assay
T5 sequence (P02778 other isoform, or with tags, fused parts or gaps limits assumed): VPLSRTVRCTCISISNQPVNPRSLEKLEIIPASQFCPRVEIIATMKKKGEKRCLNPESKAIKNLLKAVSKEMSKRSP

[2] = target: T5, human IP-10 (interferon gamma inducible …); assay: SPR (Biacore), extension of dissociation curve, 37 C
Description: (§1) Binding was measured by flowing the antibody in HBS EP buffer (provided by Biacore AB) at concentrations from 33-267 nM at a flow rate of 40 μl/min. The antigen-antibody association kinetics was followed for 5 minutes and the dissociation kinetics was followed for 8 minutes. The association and dissociation curves were fit to a 1:1 Langmuir binding model using BIAevaluation software (Biacore AB). Data corresponding to the initial few dozen seconds for association and dissociation phases alone were considered for curve fitting to minimize the effect of avidity. The experiments were performed at both 25° C. and 37° C.
(§2) The values were determined by extension of the dissociation curves to get to the time required for the 50% reduction of the Y-axis of the dissociation sensogram.

rhesus monkey IP-10 [3] = target: T1, rhesus monkey IP-10; assay: ELISA, plate coated with 1 ug/ml antigen
Description: (§3) The plates were washed with PBS/Tween and then incubated with a goat-anti-human IgG Fc polyclonal antibody conjugated with horseradish peroxidase (HRP) for 1 hour at room temperature. After washing, the plates were developed with ABTS substrate (Sigma, A-1888, 0.22 mg/ml) and analyzed by spectrophotometer at OD 415-495.

[4] = target: T2, human MIG (monokine induced by gamma …); assay: ELISA, plate coated with 1 ug/ml antigen
Description: as §3

[5] = target: T5, human IP-10 (interferon gamma inducible …); assay: ELISA, plate coated with 1 ug/ml antigen
Description: as §3

[6] = target: T5, human IP-10 (interferon gamma inducible …); assay: inhibition of 0.100 nM 125I-IP-10 binding to CXCR3-expressing 300.19 cells
Description: The cells were grown in RPMI media containing 10% FCS and G418 selection. Prior to use, the cells were washed twice with Hank's Balanced Salt Solution (HBSS) at 4° C. and adjusted to 4×10⁷ cells/ml. Glass fiber plates (Millipore MultiScreen®, Cat. #MAFBNOB50) were blocked with 200 μl of a 0.1% polyethyleneimine solution one day prior to the experiment. On the day of the study, the blocking buffer was aspirated by using a Millipore manifold. The plates were washed three times with 200 μl of binding buffer (50 mM HEPES, pH 7.2, 1 mM CaCl₂, 5 mM MgCl₂, 0.5% BSA). […] The plates were incubated on a plate shaker for 60 minutes at room temperature and washed three times with wash buffer (10 mM HEPES, pH 7.2, 0.5 M NaCl, 0.5% BSA) at a volume of 200 μl per wash. The plates were dried, 25 μl of scintillant was added and the plates were counted on a Wallac Microbeta Counter. Data were analyzed using Prism software and a KD was calculated.
Competition assays were run in a similar manner to the experiment described above. […] Lastly, 25 μl of cells at a density of 1×10⁶ cells per well were added and the plates were incubated on a plate shaker for 60 minutes at room temperature, washed and counted as described above. EC₅₀ values were calculated using Prism software. Kᵢ values (in nM) were determined using the formula: […]

mouse IP-10 [7] = target: T3, mouse IP-10; assay: SPR (Biacore), antigen on CM5 chip, 25 C
Description: (§4) The flow was then stopped and dissociation was monitored for 5 minutes. The association and dissociation curves were fit to a Langmuir binding model using BIAevaluation software (Biacore AB).

[8] = target: T4, human ITAC (interferon-inducible T cell …); assay: SPR (Biacore), antigen on CM5 chip, 25 C
Description: as §4

rhesus monkey IP-10 [9] = target: T1, rhesus monkey IP-10; assay: SPR (Biacore), antigen on CM5 chip, antibody 133 nM, 25 C
Description: as §4

[10] = target: T2, human MIG (monokine induced by gamma …); assay: as above
Description: as §4

[11] = target: T5, human IP-10 (interferon gamma inducible …); assay: SPR (Biacore), human IP-10 on CM5 chip, 37 C
Description: as §1

[12] = target: T5, human IP-10 (interferon gamma inducible …); assay: SPR (Biacore), extension of dissociation curve, 25 C
Description: as §1, §2

[13] = target: T5, human IP-10 (interferon gamma inducible …); assay: SPR (Biacore), human IP-10 on CM5 chip, 25 C
Description: as §1

rhesus monkey IP-10 [14] = target: T1, rhesus monkey IP-10; assay: cell-based or functional assay
[15] = target: T5, human IP-10 (interferon gamma inducible …); assay: cell-based or functional assay; remark: listed apart in the source
[16] = target: T4, human ITAC (interferon-inducible T cell …); assay: SPR (Biacore), antigen on CM5 chip, antibody 133 nM, 25 C
Description: as §4

[17] = target: T2, human MIG (monokine induced by gamma …); assay: SPR (Biacore), antigen on CM5 chip, 25 C; sample 6A5 Batch 2
Description: as §4

[18] = target: T5, human IP-10 (interferon gamma inducible …); assay: cell-based or functional assay; remark: listed apart in the source
mouse IP-10 [19] = target: T3, mouse IP-10; assay: SPR (Biacore), antigen on CM5 chip, 25 C; sample 6A5
Description: as §4

[20] = target: T4, human ITAC (interferon-inducible T cell …); assay: as above
Description: as §4

Binder | IC50 (nM) for 300.19 Cells: inhibition of IP-10-induced calcium flux in 300.19 cells transfected to express CXCR3 [1] [nM] | IC50 (nM) for HPBL: inhibition of IP-10-induced calcium flux in anti-CD3 activated human PBLs that express CXCR3 [1] [nM] | Half-life (dissociation of half of the antibody-antigen complex) [2] | EC50 (rhesus monkey IP-10 [3]) | EC50 [4] [µg/mL] | EC50 [5] | Ki [6] | Kd (rhesus monkey IP-10 [9]) | Kd [10] [pM] | Kd [11] | koff [11] | kon [11] | Half-life (dissociation of half of the antibody-antigen complex) [12] | Kd [13] | koff [13] | kon [13] | also measured
B1 | 0.5 | 2.98 | 3.87 h | 0.03 µg/mL | 0.045 | 0.03 µg/mL | 90 pM | 260 pM | 70100 | 340 pM | 4.97e-05 s⁻¹ | 148000 M⁻¹ s⁻¹ | 25.7 h | ~198 pM | 7.5e-06 s⁻¹ | 37800 M⁻¹ s⁻¹ | binding result (mouse IP-10 [7]): no binding (tested: 133 nM); binding result [8]: no binding (tested: 133 nM)
B2 | 0.5 | 4.4 | 0.38 h | 0.045 µg/mL | 0.02 | 0.03 µg/mL | 300 pM | 2010 pM | 15400 | 2540 pM | 0.000504 s⁻¹ | 199000 M⁻¹ s⁻¹ | 1.12 h | 1780 pM | 0.000172 s⁻¹ | 95000 M⁻¹ s⁻¹ | rrmIP-10 IC50: inhibition of migration of CXCR3-expressing 300.19 cells induced by 100 ng/ml recombinant rhesus macaque IP-10 (rhesus monkey IP-10 [14]): 0.149 µg/mL; THP-1 IP-10 IC50: inhibition of migration of CXCR3-expressing 300.19 cells induced by native IP-10 in THP-1 supernatant, MIG blocked by anti-MIG [15]: 0.193 µg/mL; rhIP-10 IC50: inhibition of migration of CXCR3-expressing 300.19 cells induced by 100 ng/ml recombinant human IP-10 [15]: 1.1 µg/mL; Kd [16]: 51500 pM
B3 |  |  | 2.69 h and 3.87 h | 0.125 µg/mL and 0.09 µg/mL |  | 0.035 µg/mL and 0.062 µg/mL | 670 pM and 350 pM | 1060 pM and 1230 pM |  | 700 pM and 740 pM | 7.15e-05 s⁻¹ and 6.26e-05 s⁻¹ | 102000 M⁻¹ s⁻¹ and 84100 M⁻¹ s⁻¹ | 5.29 h and 6.21 h | 1200 pM and 960 pM | 3.64e-05 s⁻¹ and 3.1e-05 s⁻¹ | 31100 M⁻¹ s⁻¹ and 32000 M⁻¹ s⁻¹ | rrmIP-10 IC50: inhibition of migration of CXCR3-expressing 300.19 cells induced by 100 ng/ml recombinant rhesus macaque IP-10 (sample 6A5 (Batch 2)) (rhesus monkey IP-10 [14]): 0.119 µg/mL; THP-1 IP-10 IC50: inhibition of migration of CXCR3-expressing 300.19 cells induced by native IP-10 in THP-1 supernatant, MIG blocked by anti-MIG (sample 6A5 (Batch 2)) [15]: 0.132 µg/mL; rhIP-10 IC50: inhibition of migration of CXCR3-expressing 300.19 cells induced by 100 ng/ml recombinant human IP-10 (sample 6A5 (Batch 2)) [15]: 0.156 µg/mL; binding result [17]: no binding (tested: 133 nM); IC50 (nM) for 300.19 Cells: inhibition of IP-10-induced calcium flux in 300.19 cells transfected to express CXCR3 (sample 6A5) [1]: 0.61 nM; IC50 (nM) for 300.19 Cells: inhibition of IP-10-induced calcium flux in 300.19 cells transfected to express CXCR3 (sample 6A5 Batch 2) [1]: 0.42 nM; IC50 (nM) for HPBL: inhibition of IP-10-induced calcium flux in anti-CD3 activated human PBLs that express CXCR3 (sample 6A5) [1]: 2.85 nM; IC50 (nM) for HPBL: inhibition of IP-10-induced calcium flux in anti-CD3 activated human PBLs that express CXCR3 (sample 6A5 Batch 2) [1]: 2.18 nM; Expt. 1 IC50: inhibition of MS-CSF induced migration of CXCR3-expressing 300.19 cells, MIG neutralized by anti-MIG (sample 6A5 (Batch 2)) [18]: 0.1 µg/mL; Expt. 2 IC50: inhibition of MS-CSF induced migration of CXCR3-expressing 300.19 cells, MIG neutralized by anti-MIG (sample 6A5 (Batch 2)) [18]: 0.236 µg/mL; binding result (mouse IP-10 [19]): no binding (tested: 133 nM); binding result [20]: no binding (tested: 133 nM)
